Positions count from the first letter of the chain named. Values belong to the binder of their own block, whether it stands above or below them.
Tests used:
recombinant human IgA [1] = target: T1, recombinant human IgA (human); assay: Biacore T200, pH 7.4, 1.2 mM Ca, 1:1 binding model
T1 construct: Antigen; H(WT)-IgA1 with L(WT); The text calls human IgA a dimeric antigen; also called hIgA
Description: (§1) Using Biacore T200 (GE Healthcare), the obtained antibodies were assessed for their binding activity to human IgA (dissociation constant KD (M)). The measurement was carried out using as a running buffer 0.05% tween20, 20 mmol/1 ACES, 150 mmol/l NaCl (pH 7.4 or pH 5.8) containing 3 μM or 1.2 mM CaCl₂, or 0.05% tween20, 20 mmol/1 ACES, 150 mmol/l NaCl (pH 8.0) containing 0.1 μM or 10 mM CaCl₂.
(§2) After an adequate amount of recombinant Protein A/G (Thermo Scientific) was immobilized onto the Sensor chip CM5 (GE Healthcare) by an amino coupling method, antibodies were allowed to bind onto the sensor chip. An appropriate concentration of hIgA (described in (20-1)) was injected as an analyte to interact with antibodies on the sensor chip. Then, the sensor chip was regenerated by injecting 10 mmol/l glycine-HCl, pH 1.5. The measurement was carried out at 37° C. From the assay result, the dissociation constant KD (M) was calculated based on curve-fitting analysis and equilibrium constant analysis using Biacore T200 Evaluation Software (GE Healthcare).

recombinant human IgA [2] = target: T1, recombinant human IgA; assay: Biacore T200, pH 7.4, 3 µM Ca, 1:1 binding model
Description: as §1, §2

recombinant human IgA [3] = target: T1, recombinant human IgA; assay: Biacore T200, pH 8.0, 0.1 µM Ca, 1:1 binding model
Description: as §1, §2

recombinant human IgA [4] = target: T1, recombinant human IgA; assay: Biacore T200, pH 5.8, 3 µM Ca, 1:1 binding model
Description: as §1, §2

recombinant human IgA [5] = target: T1, recombinant human IgA; assay: Biacore T200, pH 5.8, 1.2 mM Ca, 1:1 binding model
Description: as §1, §2

recombinant human IgA [6] = target: T1, recombinant human IgA; assay: Biacore T200, pH 8.0, 10 mM Ca, 1:1 binding model
Description: as §1, §2

recombinant human IgA [7] = target: T1, recombinant human IgA; assay: Biacore T200, pH 5.8, 1.2 mM Ca, steady state affinity
Description: as §1, §2

recombinant human IgA [8] = target: T1, recombinant human IgA; assay: Biacore T200, pH 7.4, 1.2 mM Ca, steady state affinity
Description: as §1, §2

recombinant human IgA [9] = target: T1, recombinant human IgA; assay: Biacore T200, pH 7.4, 3 µM Ca, steady state affinity
Description: as §1, §2

recombinant human IgA [10] = target: T1, recombinant human IgA; assay: Biacore T200, pH 5.8, 3 µM Ca, steady state affinity
Description: as §1, §2

human interleukin 6 = target: T2, human interleukin 6 (human, UniProt P05231 30-212, limits assumed); assay: Biacore T100, antibody captured by Protein A/G, pH 7.4, 37 C
T2 construct: also called hIL6; IL-6
T2 sequence (P05231 30-212 limits assumed): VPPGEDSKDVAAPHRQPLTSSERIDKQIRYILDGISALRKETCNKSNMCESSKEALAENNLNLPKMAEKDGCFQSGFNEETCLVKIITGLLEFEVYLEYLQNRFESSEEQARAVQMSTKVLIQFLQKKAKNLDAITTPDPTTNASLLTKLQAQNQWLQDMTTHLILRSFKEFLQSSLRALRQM
Description: Using Biacore T100 (GE Healthcare), the prepared antibodies were assessed for their binding activity (dissociation constant KD (M)) to human interleukin 6 (hIL6) at pH 7.4. The measurement was carried out using as a running buffer 0.05% Tween20, 10 mmol/1 ACES, 150 mmol/l NaCl (pH 7.4) containing 3 μM or 1.2 mM CaCl₂.
After an adequate amount of recombinant Protein A/G (Thermo Scientific) was immobilized onto Sensor chip CM5 (GE Healthcare) by an amino coupling method, antibodies were allowed to bind thereto. An appropriate concentration of hIL6 (human interleukin 6; Kamakura Techno-Science, Inc.) was injected as an analyte to interact with antibodies on the sensor chip. Then, the sensor chip was regenerated by injecting 10 mmol/1 glycine-HCl (pH 1.5). The measurement was carried out at 37° C.

[11] = target: T3, soluble human IL-6 receptor (human, UniProt P08887 20-357); assay: Biacore T100
T3 construct: also called hsIL-6R; hIL6R
T3 sequence: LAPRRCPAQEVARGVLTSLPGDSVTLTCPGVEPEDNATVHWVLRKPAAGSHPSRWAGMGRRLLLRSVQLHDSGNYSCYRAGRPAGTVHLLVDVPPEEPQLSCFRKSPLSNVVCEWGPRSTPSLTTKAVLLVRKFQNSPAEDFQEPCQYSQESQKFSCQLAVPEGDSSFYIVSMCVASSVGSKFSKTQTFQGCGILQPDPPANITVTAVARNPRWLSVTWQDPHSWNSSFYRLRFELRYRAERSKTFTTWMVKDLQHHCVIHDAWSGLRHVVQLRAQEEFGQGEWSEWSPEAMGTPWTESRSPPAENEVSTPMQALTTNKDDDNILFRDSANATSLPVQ

[12] = target: T3, soluble human IL-6 receptor; assay: Biacore T100, antibody captured by Protein A, 37 C
[13] = target: T4, recombinant human glypican 3 (human, UniProt P51654 25-563, biotin-labeled in the ELISA); assay: ELISA on biotin-labeled GPC3
T4 construct: Six histidine residues are linked; also called GPC3; human GPC3
Description: The plate was incubated at 37° C. for 30 minutes. […] The plate was incubated for one hour.

T1 sequence (heavy, as listed by the source): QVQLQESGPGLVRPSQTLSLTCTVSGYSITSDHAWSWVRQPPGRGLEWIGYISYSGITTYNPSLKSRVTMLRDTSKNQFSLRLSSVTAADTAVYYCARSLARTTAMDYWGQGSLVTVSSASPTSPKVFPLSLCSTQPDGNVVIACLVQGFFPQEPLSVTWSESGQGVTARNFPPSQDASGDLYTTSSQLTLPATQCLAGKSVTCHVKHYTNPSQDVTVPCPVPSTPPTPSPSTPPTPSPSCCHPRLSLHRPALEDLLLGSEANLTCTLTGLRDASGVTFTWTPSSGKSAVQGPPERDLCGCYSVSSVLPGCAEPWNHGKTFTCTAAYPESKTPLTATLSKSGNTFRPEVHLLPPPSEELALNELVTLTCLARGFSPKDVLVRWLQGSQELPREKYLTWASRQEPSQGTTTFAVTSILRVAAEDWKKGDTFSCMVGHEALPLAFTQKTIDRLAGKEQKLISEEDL

Kd (recombinant human IgA [1]): 150 nM | koff (recombinant human IgA [1]): 0.084 s⁻¹ | kon (recombinant human IgA [1]): 570000 M⁻¹ s⁻¹ | Kd (recombinant human IgA [2]): 190 nM | koff (recombinant human IgA [2]): 0.12 s⁻¹ | kon (recombinant human IgA [2]): 640000 M⁻¹ s⁻¹ | Kd (recombinant human IgA [3]): 100 nM | koff (recombinant human IgA [3]): 0.12 s⁻¹ | kon (recombinant human IgA [3]): 1.2e+06 M⁻¹ s⁻¹ | Kd (recombinant human IgA [4]): 150 nM | koff (recombinant human IgA [4]): 0.11 s⁻¹ | kon (recombinant human IgA [4]): 710000 M⁻¹ s⁻¹ | Kd (recombinant human IgA [5]): 140 nM | koff (recombinant human IgA [5]): 0.099 s⁻¹ | kon (recombinant human IgA [5]): 680000 M⁻¹ s⁻¹ | Kd (recombinant human IgA [6]): 220 nM | koff (recombinant human IgA [6]): 0.24 s⁻¹ | kon (recombinant human IgA [6]): 1.1e+06 M⁻¹ s⁻¹
B1: GA1-IgG1 (antibody, V domains shown)
VH: EVQLVQSGAEVKKPGSSVKVSCKASGGTFSSYAISWVRQAPGQGLEWMGGIIPIFGTANYAQKFQGRVTITADESTSTAYMELSSLRSEDTAVYYCARVAPGNWGSPYFDYWGQGTLVTVSS
VL: DIQMTQSPSSLSASVGDRVTITCRASQSIEDDLAWYQQKPGKAPKLLIYEASSLQSGVPSRFSGSGSGTDFTLTISSLQPEDFATYYCQQRDSSPLTFGQGTKVEIKR
notes: also called GAI-IgG1

Kd (recombinant human IgA [7]): 1100 nM | Kd (recombinant human IgA [8]): 420 nM | Kd (recombinant human IgA [9]): 890 nM | Kd (recombinant human IgA [10]): 1500 nM
B2: GA4-IgG1 (antibody, V domains shown)
VH: QVQLQQSGPGLVKPSETLSLTCTILGGSISGHYWSWIRQTPGKGLEWIGYIDYSGSTHYNPSLKSRVTMSVDTSKNQFSLKLSSVTAADTAMYYCARDNWDFGSGSYYNWFDPWGQGTLVTVSS
VL: B1 VL with E50H, R91S, S93N

Kd (recombinant human IgA [1]): 79 nM | koff (recombinant human IgA [1]): 0.033 s⁻¹ | kon (recombinant human IgA [1]): 430000 M⁻¹ s⁻¹ | Kd (recombinant human IgA [10]): 1100 nM | Kd (recombinant human IgA [5]): 81 nM | koff (recombinant human IgA [5]): 0.035 s⁻¹ | kon (recombinant human IgA [5]): 440000 M⁻¹ s⁻¹
B3: GA3-IgG1 (antibody, V domains shown)
VH: QVQLVQSGAEVKKPGSSVKVSCKASGGTFSSYAISWVRQAPGQGLEWMGGIIPIFGTANYAQKFQGRVTITADESTSTAYMELSSLRSEDTAVYYCARGNGDYLEYFQHWGQGTLVTVSS
VL: B1 VL with E30S, S53N

koff (recombinant human IgA [1]): 0.016 s⁻¹
B4: GA2-IgG1 (antibody, V domains shown)
VH: QVQLVQSGAEVKKPGSSVKVSCKASGGTFSSYAISWVRQAPGQGLEWMGGIIPIFGTANYAQKFQGRVTITADESTSTAYMELSSLRSEDTAVYYCARPRWETAISSDAFDIWGQGTMVTVSS
VL: B1 VL with E30S, A34N, S53N, R91H, D92S

binding result (human interleukin 6): binds
B5: 6KC4-1#85-IgG1 (antibody, V domains shown)
VH: EVQLVESGGGLVQPGGSLRLSCAASGFTFSSYEMNWVRQAPGKGLEWVSYISSSGSTIYYADSVKGRFTISRDNAKNSLYLQMNSLRAEDTAVYYCARDAPYYYDSSGYTDAFDIWGQGTMVTVSS
VL: EIVLTQSPATLSLSPGERATLSCRASQSVSSYLAWYQQKPGQAPRLLIFDASNRAAGIPARFSGSGSGTDFTLTISSLEPEDFAVYYCQQFDKWVTFGGGTTVEIRR

Ca … (KD at 3 µM CaCl2 against KD at 2 mM CaCl2) [11]: ≥ 120 fold
B6: 6RL#9-IgG1 (antibody, V domains shown)
VH: QVQLVQSGAEVKKPGASVKVSCKASGYTFTSYYMHWVRQAPGQGLEWMGIINPSGGSTSYAQKFQGRVTMTRDTSTSTVYMELSSLRSEDTAVYYCARDDPGGGEYYFDYWGQGTLVTVSS
VL: QSVLTQPPSVSGAPGQRVTISCTGSRSNMGAGYDVHWYQLLPGAAPKLLISHNTHRPSGVPDRFSGSKSGASASLAITGLQAEDEADYYCQSHDSSLSAVVFGGGTKLTVLS

binding result (human interleukin 6): binds
B7: 6LC4-2#16-IgG1 (antibody, V domains shown)
VH: QVQLQQSGPGLVKPSQTLSLTCAISGDSVSSNSAAWNWIRQSPSRGLEWLGRTYYRSKWYNDYAVSVKSRITINPDTSKNQFSLQLNSVTPEDTAVYYCARDLIAAAGGDFDYWGQGTLVTVSS
VL: QSVLTQPPSVSGAPGQRVTISCTGSRSNIGAGFDVHWYRQLPGTAPKLLIYGISNRPSGVPDRFSGSKSDTSVSLAITGLQAEDEADYYCQSYDSSLSGYVFGTGTKVTVLG

binding result (human interleukin 6): binds
B8: 6LC4-1#15-IgG1 (antibody, V domains shown)
VH: QVQLVQSGAEVKKPGATVKISCKVSGYTFTDYYMHWVQQAPGKGLEWMGLVDPEDGETIYAEKFQGRVTITADTSTDTAYMELSSLRSEDTAVYYCATAGSSSNFDYWGQGTLVTVSS
VL: QSALTQPRSVSGSPGQSVTISCTGTSSDVGGYNYVSWYQQHPGKAPKLMIYDVSKRPSGVPDRFSGSKSGNTASLTISGLQAEDEADYYCCSYAGSYTWVFGGGTKLTVLG

Ca … (KD at 3 µM CaCl2 against KD at 2 mM CaCl2) [11]: ≥ 60 fold
B9: FH4-IgG1 (antibody, V domains shown)
VH: QVQLVQSGAEVKKPGSSVKVSCKASGGTFSSYAISWVRQAPGQGLEWMGGIIPIFGTANYAQKFQGRVTITADESTSTAYMELSSLRSEDTAVYYCARERDYYDSSGYYDAFDIWGQGTMVTVSS
VL: ETTVTQSPSFLSASVGDRVTITCITTTDIDDDMNWFQQEPGKAPKLLISEGNILRPGVPSRFSSSGYGTDFTLTISKLQPEDFATYYCLQSDNLPFTFGQGTKLEIKR

binding result [12]: binds
B10: 6RK#12-IgG1 (antibody, V domains shown)
VH: QVQLVQSGAEVKKPGSSVKVSCKASGGTFSSYAISWVRQAPGQGLEWMGGIIPIFGTANYAQKFQGRVTITADESTSTAYMELSSLRSEDTAVYYCARDLGDIVVVPAAPDMPKGYYYYGMDVWGQGTMVTVSS
VL: EIVMTQSPATLSVSPGERATLSCRASQSINDNLAWYQQKPGQAPRLLIYGASTRATGIPARFSGSGSGTEFTLTISSLQSEDFAVYFCQQYQYWPPITFGQGTRLDIKR

binding result [13]: binds
B11: GC-IgG1 (antibody, V domains shown)
VH: QVQLVQSGAEVKKPGASVKVSCKASGYTFTDYEMHWVRQAPGQGLEWMGALDPKTGDTAYSQKFKGRVTLTADKSTSTAYMELSSLTSEDTAVYYCTRFYSYTYWGQGTLVTVSS
VL: DVVMTQSPLSLPVTPGEPASISCRSSQSLVHSNRNTYLHWYLQKPGQSPQLLIYKVSNRFSGVPDRFSGSGSGTDFTLKISRVEAEDVGVYYCSQNTHVPPTFGQGTKLEIKR
